Publication PMC4558008, “Yeast Mitochondrial Transcription Factor Mtf1 Determines the Precision of Promoter-Directed Initiation of RNA Polymerase Rpo41” (PLoS ONE, 2015)

B1: Yeast mitochondrial transcription factor Mtf1 (His-Mtf1) (natural protein, UniProt P14908 2-341, looked up)
chain: SVPIPGIKDISKLKFFYGFKYLWNPTVYNKIFDKLDLTKTYKHPEELKVLDLYPGVGIQSAIFYNKYCPRQYSLLEKRSSLYKFLNAKFEGSPLQILKRDPYDWSTYSNLIDEERIFVPEVQSSDHINDKFLTVANVTGEGSEGLIMQWLSCIGNKNWLYRFGKVKMLLWMPSTTARKLLARPGMHSRSKCSVVREAFTDTKLIAISDANELKGFDSQCIEEWDPILFSAAEIWPTKGKPIALVEMDPIDFDFDVDNWDYVTRHLMILKRTPLNTVMDSLGHGGQQYFNSRITDKDLLKKCPIDLTNDEFIYLTKLFMEWPFKPDILMDFVDMYQTEHSG
notes: Mtf1, yeast mitochondrial transcription factor (theoretical 40 kDa); the printed PCR primers run from the codon after the start methionine (TCT GTT CCA ATC CCT: S V P I P) to the stop codon; Subcloned into pTrcHisC (Invitrogen) between NheI and HindIII; the vector's leader with the His tag precedes the protein; source: E. coli Rosetta cells, purified
B2: Rpo41 ΔN393 (N-terminal 393 residues removed, 958 aa) (domain or fragment, yeast, UniProt P13433 394-1351, looked up)
chain: SLPTLEEKKAFESALNIFNQDRQKVLENRATEAARERWKHDFEEAKARGDISIEKNLNVKLWKWYNEMLPLVKEEINHCRSLLSEKLSDKKGLNKVDTNRLGYGPYLTLIDPGKMCVITILELLKLNSTGGVIEGMRTARAVISVGKAIEMEFRSEQVLKSESQAFRDVNKKSPEFKKLVQNAKSVFRSSQIEQSKILWPQSIRARIGSVLISMLIQVAKVSVQGVDPVTKAKVHGEAPAFAHGYQYHNGSKLGVLKIHKTLIRQLNGERLIASVQPQLLPMLVEPKPWVNWRSGGYHYTQSTLLRTKDSPEQVAYLKAASDNGDIDRVYDGLNVLGRTPWTVNRKVFDVVSQVWNKGEGFLDIPGAQDEMVLPPAPPKNSDPSILRAWKLQVKTIANKFSSDRSNRCDTNYKLEIARAFLGEKLYFPHNLDFRGRAYPLSPHFNHLGNDMSRGLLIFWHGKKLGPSGLKWLKIHLSNLFGFDKLPLKDRVAFTESHLQDIKDSAENPLTGDRWWTTADKPWQALATCFELNEVMKMDNPEEFISHQPVHQDGTCNGLQHYAALGGDVEGATQVNLVPSDKPQDVYAHVARLVQKRLEIAAEKGDENAKILKDKITRKVVKQTVMTNVYGVTYVGATFQIAKQLSPIFDDRKESLDFSKYLTKHVFSAIRELFHSAHLIQDWLGESAKRISKSIRLDVDEKSFKNGNKPDFMSSVIWTTPLGLPIVQPYREESKKQVETNLQTVFISDPFAVNPVNARRQKAGLPPNFIHSLDASHMLLSAAECGKQGLDFASVHDSYWTHASDIDTMNVVLREQFIKLHEVDLVLRLKEEFDQRYKNYVKIGKLKRSTDLAQKIIRIRKDLSRKLGRSTTLADEIYFEKKRQELLNSPLIEDRNVGEKMVTTVSLFEDITDLDALELENGGDENSGMSVLLPLRLPEIPPKGDFDVTVLRNSQYFFS
notes: printed length 958 aa (theoretical 111 kDa); source: E. coli Rosetta cells, purified (same method as His-Rpo41: Ni-NTA, Superdex 200 gel filtration)
B3: Yeast mitochondrial RNA polymerase Rpo41, wild-type (His-Rpo41) (enzyme)
chain: MLRPAYKSLVKTSLLQRRLISSKGSKLFKPSPDSTSTILISEDPLVTGSSPTSSTTSGIISSNDFPLFNKNRKDAKSSISYQWKNPSELEFDPFNKSHASAVTSMTRTRDVMQLWSLLEACLQSNLMKRAFSILESLYLVPEHKQRFIEDYNMYLNSFSKNDPNFPILKMNEKLTNDLETSFKDVNYNDKTLAIMIHHALNFHSTTSSMLLKPIISAYLKMSVNGIREIFSCLDILTISDLNILMNDLKVITPSQLPNSVRPILESLTLSPTPVNNIENEEGLNKVEAENDSKLHKASNASSDSIKKPSLDPLREVSFHGSTEVLSKDAEKLIAVDTIGMRVIRHTLLGLSLTPEQKEQISKFKFDANDNVLKMKPTKNDDNNNSINFFEIYNSLPTLEEKKAFESALNIFNQDRQKVLENRATEAARERWKHDFEEAKARGDISIEKNLNVKLWKWYNEMLPLVKEEINHCRSLLSEKLSDKKGLNKVDTNRLGYGPYLTLIDPGKMCVITILELLKLNSTGGVIEGMRTARAVISVGKAIEMEFRSEQVLKSESQAFRDVNKKSPEFKKLVQNAKSVFRSSQIEQSKILWPQSIRARIGSVLISMLIQVAKVSVQGVDPVTKAKVHGEAPAFAHGYQYHNGSKLGVLKIHKTLIRQLNGERLIASVQPQLLPMLVEPKPWVNWRSGGYHYTQSTLLRTKDSPEQVAYLKAASDNGDIDRVYDGLNVLGRTPWTVNRKVFDVVSQVWNKGEGFLDIPGAQDEMVLPPAPPKNSDPSILRAWKLQVKTIANKFSSDRSNRCDTNYKLEIARAFLGEKLYFPHNLDFRGRAYPLSPHFNHLGNDMSRGLLIFWHGKKLGPSGLKWLKIHLSNLFGFDKLPLKDRVAFTESHLQDIKDSAENPLTGDRWWTTADKPWQALATCFELNEVMKMDNPEEFISHQPVHQDGTCNGLQHYAALGGDVEGATQVNLVPSDKPQDVYAHVARLVQKRLEIAAEKGDENAKILKDKITRKVVKQTVMTNVYGVTYVGATFQIAKQLSPIFDDRKESLDFSKYLTKHVFSAIRELFHSAHLIQDWLGESAKRISKSIRLDVDEKSFKNGNKPDFMSSVIWTTPLGLPIVQPYREESKKQVETNLQTVFISDPFAVNPVNARRQKAGLPPNFIHSLDASHMLLSAAECGKQGLDFASVHDSYWTHASDIDTMNVVLREQFIKLHEVDLVLRLKEEFDQRYKNYVKIGKLKRSTDLAQKIIRIRKDLSRKLGRSTTLADEIYFEKKRQELLNSPLIEDRNVGEKMVTTVSLFEDITDLDALELENGGDENSGMSVLLPLRLPEIPPKGDFDVTVLRNSQYFFS

Legend:
[1] = biological target: B2; experiment: SEC; analytical gel filtration (Superdex), 2.8 μM Rpo41 (wild-type or ΔN393) with 5.6 μM Mtf1, no DNA; peak fractions on SDS-PAGE with densitometry; apparent Kd; 40 mM Tris-HCl pH 7.9, 150 mM NaCl, 0.1% Tween 20, 15% glycerol, 1 mM EDTA, 1 mM DTT; settings: both partners purified
[2] = biological target: B2; experiment: SEC; analytical gel filtration (Superdex), 1 μM Rpo41 (wild-type or ΔN393), 2 μM Mtf1 and 3 μM 20 bp duplex DNA with the 14S rRNA promoter; peak fractions on SDS-PAGE with densitometry; apparent Kd in the presence of DNA; 40 mM Tris-HCl pH 7.9, 150 mM NaCl, 0.1% Tween 20, 15% glycerol, 1 mM EDTA, 1 mM DTT; settings: both partners purified
[3] = biological target: B1; experiment: cell-based or functional assay
[4] = biological target: B1; experiment: SEC; analytical gel filtration (Superdex), 1 μM Rpo41 (wild-type or ΔN393), 2 μM Mtf1 and 3 μM 20 bp duplex DNA with the 14S rRNA promoter; peak fractions on SDS-PAGE with densitometry; apparent Kd in the presence of DNA; 40 mM Tris-HCl pH 7.9, 150 mM NaCl, 0.1% Tween 20, 15% glycerol, 1 mM EDTA, 1 mM DTT; settings: both partners purified
[5] = biological target: B1; experiment: SEC; analytical gel filtration (Superdex), 2.8 μM Rpo41 (wild-type or ΔN393) with 5.6 μM Mtf1, no DNA; peak fractions on SDS-PAGE with densitometry; apparent Kd; 40 mM Tris-HCl pH 7.9, 150 mM NaCl, 0.1% Tween 20, 15% glycerol, 1 mM EDTA, 1 mM DTT; settings: both partners purified
[6] = biological target: B1; experiment: as above; settings: both partners purified; remark: listed apart in the source
[7] = biological target: B1; experiment: SEC; analytical gel filtration (Superdex), 1 μM Rpo41 (wild-type or ΔN393), 2 μM Mtf1 and 3 μM 20 bp duplex DNA with the 14S rRNA promoter; peak fractions on SDS-PAGE with densitometry; apparent Kd in the presence of DNA; 40 mM Tris-HCl pH 7.9, 150 mM NaCl, 0.1% Tween 20, 15% glycerol, 1 mM EDTA, 1 mM DTT; settings: both partners purified; remark: listed apart in the source

Binder: B1
Kd [1]: 13000 nM | Kd [2]: 600 nM

Binder: B2
activity of the holoenzyme on the 70 bp linear 14S rRNA promoter template, relative to the wild-type enzyme [3]: 20% | stoichiometry N [4]: 1

Binder: B3
Kd [5]: 4000 nM | stoichiometry N [6]: 1 | Kd [7]: 20 nM
